Reference: patent US20020106675

Target: F7 protein

B1: Pfu DNA polymerase (α-type DNA polymerase) (protein)
chain: MILDVDYITEEGKPVIRLFKKENGKFKIEHDRTFRPYIYALLRDDSKIEEVKKITGERHGKIVRIVDVEKVEKKFLGKPITVWKLYLEHPQDVPTIREKVREHPAVVDIFEYDIPFAKRYLIDKGLIPMEGEEELKILAFDIETLYHEGEEFGKGPIIMISYADENEAKVITWKNIDLPYVEVVSSEREMIKRFLRIIREKDPDIIVTYNGDSFDFPYLAKRAEKLGIKLTIGRDGSEPKMQRIGDMTAVEVKGRIHFDLYHVITRTINLPTYTLEAVYEAIFGKPKEKVYADEIAKAWESGENLERVAKYSMEDAKATYELGKEFLPMEIQLSRLVGQPLWDVSRSSTGNLVEWFLLRKAYERNEVAPNKPSEEEYQRRLRESYTGGFVKEPEKGLWENIVYLDFRALYPSIIITHNVSPDTLNLEGCKNYDIAPQVGHKFCKDIPGFIPSLLGHLLEERQKIKTKMKETQDPIEKILLDYRQKAIKLLANSFYGYYGYAKARWYCKECAESVTAWGRKYIELVWKELEEKFGFKVLYIDTDGLYATIPGGESEEIKKKALEFVKYINSKLPGLLELEYEGFYKRGFFVTKKRYAVIDEEGKVITRGLEIVRRDWSEIAKETQARVLETILKHGDVEEAVRIVKEVIQKLANYEIPPEKLAIYEQITRPLHEYKAIGPHVAVAKKLAAKGVKIKPGMVIGYIVLRGDGPISNRAILAEEYDPKKHKYDAEYYIENQVLPAVLRILEGFGYRKEDLRYQKTRQVGLTSWLNIKKS
With B1 as the protein, how does the “ratio of the primer extension activity to the incorporation activity, about 320 kilodalton gel filtration fraction (Pfu DNA polymerase-F7 complex); about 76 kilodalton fraction (Pfu DNA polymerase alo)” value read?
Its value is “the ratio of 0.65 was obtained for the about 320 kilodalton fraction”.
